Where a chain is given by its changes, count along the chain named. Names may count otherwise.
What was measured:
A549 cells [1] = assay: Caspase-3 assay in A549 cells over-expressing FoxM1 point mutants; format: cell-based; details: doxycycline 3 μg/ml 48 hours, control set to 1
Procedure: Furthermore, to observe the degree of apoptosis of cancer cells in A549 cells expressing each of the phosphorylation and non-phosphorylated point mutants of FoxM1, a caspase-3 assay was performed to measure the activity of the caspase-3 enzyme (FIG. 5F). A549 cells expressing each protein containing the phosphorylation and non-phosphorylation point mutation of FoxM1 were administered with 3 μg/ml of doxycycline for 48 hours to induce over-expression of each mutant. The cells were lysed and reacted with the fluorescence substrate of caspase-3 (Ac-DEVD-AMC) for 1 hour, and then the fluorescence value (Ex. 380 nm/Emi. 430 nm) was measured using an electron spectrometer (SpectraMax M4 system). The measured fluorescence value indicated the activity of caspase-3, and the relative measurement value in each experimental group was calculated and depicted by a graph, when the measured fluorescence value of the control group set to 1.

A549 lung cancer cells [2] = assay: Transwell migration assay of A549 cells expressing FoxM1 WT or point mutants; format: cell-based; details: for migration / motility of cancer cells (in words): Transwell migration assay, A549
Procedure: To examine the effects of FoxM1 WT, phosphorylation, and non-phosphorylated point mutants on the motility of cancer cells, the migration assay was performed in A549 lung cancer cells expressing mutant proteins.
Specifically, 5×10^4 cells of lung cancer cells A549 expressing each of WT, phosphorylation, and non-phosphorylated point mutant of FoxM1 were seeded in an 8.0 μm, 24 well insert, and the inserts were placed in a 24-well plate after medium with 10% fetal bovine serum (FBS) was dispensed in the 24-well plate. For the positive control, 0.5 ml of RPMI1640 (10% FBS) containing 5 ng/ml of TGF-β was used. After 72 hours from cell seeding, 500 μl of 4% paraformaldehyde was dispensed, washed three times with 1×PBS, and stained with 0.05% crystal violet solution for 5 minutes. After 5 minutes, the cells were washed five times with 1×PBS, and the staining intensity was measured using the Odyssey infrared imaging system.
Specifically, 5×10^4 cells of lung cancer cells A549 expressing control and FoxM1 WT were seeded in an 8.0 μm, 24 well insert, and the inserts were placed in a 24-well plate after medium with 10% fetal bovine serum (FBS) was dispensed in the 24-well plate. For the positive control, 0.5 ml of RPMI1640 (10% FBS) containing 5 ng/ml of TGF-β was added and used. After 72 hours from cell seeding, 500 μl of 4% paraformaldehyde was dispensed, washed three times with 1×PBS, and stained with 0.05% crystal violet solution for 5 minutes. After 5 minutes, the cells were washed five times with 1×PBS, and the staining intensity was measured using the Odyssey infrared imaging system.

A549 cancer cells = assay: Tail vein injection metastatic cancer animal model with A549 cells expressing FoxM1 mutants; format: in vivo, mice; details: for cancer metastasis to lung and tumorigenesis (tumorigenicity): A549 cells expressing the mutant injected into tail vein of mice; for degree of cancer cell proliferation by H&E and Ki67 staining: lung tissue of injected mice
Procedure: To observe the tumorigenic potential of cancer cells in animal models, the present inventors aimed to evaluate the tumorigenicity-promoting and -suppressing effects of cancer cells by using cancer cells expressing phosphorylation and non-phosphorylated point mutants of FoxM1 S25 residue.
Specifically, A549 cancer cells (2×10^6 cells) stably expressing FoxM1 protein containing point mutations were diluted in PBS and injected into the tail vein of mice. The mice were raised for 8 weeks, and then laparotomy was performed to observe cancer cell metastasis and tumorigenesis in organs.

A549 cells [3] = assay: Viability of A549 cells co-cultured with Jurkat cells; format: cell-based
Excerpt: In addition, through the co-culture of the A549 cells expressing the FoxM1 S25E phosphorylated point mutant (A549^S25E) and Jurkat cells as T cells, it was tried to examine the effects on cancer immunity of T cells (FIG. 7D).

A549 cells [4] = assay: MTT viability of A549 cells co-cultured with THP-1 cells and Jurkat cells; format: cell-based; details: ratios 1:0:0, 1:6:0, 1:0:6, 1:6:6, 48 h
Procedure: (§1) To investigate the polarization into tumor-infiltrating T lymphocytes (TILs) by A549^S25E cells, the expression levels of CD25 and CD29, which were expressed in TILs, were analyzed by qRT-PCR after co-culturing Jurkat cells (1.2×10^5 cells) and A549^S25E cells (4×10^4 cells) for 48 h. As a result, it was observed that there was a significant increase of 3 folds or more, in the expression of CD25 and CD29 in Jurkat cells co-cultured with A549^S25E cells. […] Additionally, to investigate the inhibitory effect of A549^S25A cells on tumor immune evasion by TAMs or TILs in the tumor microenvironment, the viability change was examined by an MTT assay analysis after co-culturing A549 cells expressing the FoxM1 phosphorylation or non-phosphorylated point mutant, THP-1 cells, and Jurkat cells at a ratio of 1:0:0, 1:6:0, 1:0:6, and 1:6:6 for 48 h. […] That is, there was the inhibitory effect of the cells expressing non-phosphorylated point mutant on the tumor immune evasion by TAMs or TILs in the tumor microenvironment. Therefore, the present invention provided the inhibitory effects of the non-phosphorylated point mutant of FoxM1 on tumor immune evasion.

lung tissues = assay: EMT marker and PD-L1 protein levels in lysed lung tissue of injected mice; format: in vivo
Procedure: Next, when the lung tissues were lysed and the protein levels of epithelial-mesenchymal transition markers were measured, the protein levels of the mesenchymal marker N-cadherin increased in the FoxM1 phosphorylated point mutant experimental group, while the levels of E-cadherin decreased. In addition, the expression of PD-L1, which was known to be involved in immune evasion and to enhance the tumorigenic potential of cancer cells, was also examined in each experimental group. […] Moreover, the consistent results were confirmed not only at the protein levels but also at the mRNA levels (FIG. 5E).

Jurkat cells = assay: CD25 and CD29 expression (qRT-PCR) in Jurkat cells co-cultured with A549 cells; format: cell-based; details: co-culture 48 h
Procedure: as §1

A549 cells [5] = assay: MTT viability of A549 cells co-cultured with THP-1 cells; format: cell-based; details: ratios 1:0, 1:2, 1:4, 1:6, 48 hours
Procedure: The cell viability was measured to investigate whether the FoxM1 phosphorylation and non-phosphorylation point mutations affected the viability of lung cancer cells, after co-culturing the lung cancer cells (A549) expressing the FoxM1 phosphorylation and non-phosphorylated point mutants and monocyte THP-1 cells. A549 cells (4×10^4 cells/mL) and THP-1 cells were co-cultured at ratios of 1:0, 1:2, 1:4, and 1:6 for 48 hours, and after co-culturing for 48 h and washing off the THP-1 cells, the viability of A549 cells attached to the bottom was measured by an MTT assay.

A549 lung cancer cells [6] = assay: Cell proliferation assay of A549 cells expressing FoxM1 point mutants; format: cell-based; details: A549 cells expressing the mutant

B1: S25E: FoxM1 phosphorylated point mutant of the S25 residue, expressed by lentivirus in A549 cells (protein, listed as Homo sapiens)
chain: MKTSPRRPLILKRRRLPLPVQNAPEETSEEEPKRSPAQQESNQAEASKEVAESNSCKFPAGIKIINHPTMPNTQVVAIPNNANIHSIITALTAKGKESGSSGPNKFILISCGGAPTQPPGLRPQTQTSYDAKRTEVTLETLGPKPAARDVNLPRPPGALCEQKRETCDGEAAGCTINNSLSNIQWLRKMSSDGLGSRSIKQEMEEKENCHLEQRQVKVEEPSRPSASWQNSVSERPPYSYMAMIQFAINSTERKRMTLKDIYTWIEDHFPYFKHIAKPGWKNSIRHNLSLHDMFVRETSANGKVSFWTIHPSANRYLTLDQVFKQQQKRPNPELRRNMTIKTELPLGARRKMKPLLPRVSSYLVPIQFPVNQSLVLQPSVKVPLPLAASLMSSELARHSKRVRIAPKVLLAEEGIAPLSSAGPGKEEKLLFGEGFSPLLPVQTIKEEEIQPGEEMPHLARPIKVESPPLEEWPSPAPSFKEESSHSWEDSSQSPTPRPKKSYSGLRSPTRCVSEMLVIQHRERRERSRSRRKQHLLPPCVDEPELLFSEGPSTSRWAAELPFPADSSDPASQLSYSQEVGGPFKTPIKETLPISSTPSKSVLPRTPESWRLTPPAKVGGLDFSPVQTSQGASDPLPDPLGLMDLSTTPLQSAPPLESPQRLLSSEPLDLISVPFGNSSPSDIDVPKPGSPEPQVSGLAANRSLTEGLVLDTMNDSLSKILLDISFPGLDEDPLGPDNINWSQFIPELQ
activity of caspase-3 (apoptosis) (A549 cells [1]): lowest activity of caspase-3 | migration / motility of cancer cells (in words) (A549 lung cancer cells [2]): promoted the motility of lung cancer cells | cancer cell migration (stained intensity), increase compared to the control group (A549 lung cancer cells [2]; Transwell, 72 hours, control set to 1, TGF-β 5 ng/ml positive control): approximately 6 fold | staining intensity value compared to the control group (A549 lung cancer cells [2]; migration assay, 72 hours, control set to 1): up to 6 times | cancer metastasis to lung and tumorigenesis (tumorigenicity) (A549 cancer cells): significantly higher | cancer metastasis to lung and tumorigenesis (tumorigenicity) (A549 cancer cells; listed as S325E): highest tumorigenicity | degree of cancer cell proliferation by H&E and Ki67 staining (A549 cancer cells): high | viability of A549 cells co-cultured with Jurkat cells (A549 cells [3]; ratio 1:2, 48 h): 1.2 folds | viability of A549 cells co-cultured with Jurkat cells (A549 cells [3]; ratio 1:4, 48 h): 1.3 folds | viability of A549 cells co-cultured with Jurkat cells (A549 cells [3]; ratio 1:6, 48 h): 1.5 folds | viability change of A549 cells co-cultured with THP-1 and Jurkat cells (A549 cells [4]): significantly increased | expression of PD-L1 in lung tissue (lung tissues): elevated | protein level of E-cadherin in lung tissue (lung tissues): decreased | protein level of N-cadherin in lung tissue (lung tissues): increased | expression of CD25 and CD29 in Jurkat cells (Jurkat cells): ≥ 3 folds | viability of A549 cells co-cultured with THP-1 cells (A549 cells [5]): gradually increased | cell proliferation (A549 lung cancer cells [6]): did not significantly increase

B2: S25A: FoxM1 protein with Ser25 substituted with alanine, non-phosphorylated point mutant, expressed by lentivirus in A549 cells (protein)
chain: B1 chain with E25A
modifications: left off: a dimerising Fc or GST
notes: FoxM1 protein with Ser25 substituted with alanine, non-phosphorylated point mutant, expressed by lentivirus in A549 cells
activity of caspase-3 (apoptosis) (A549 cells [1]): highest activity of caspase-3 | migration / motility of cancer cells (in words) (A549 lung cancer cells [2]): reduced | migration / motility of cancer cells (in words) (A549 lung cancer cells [2]; listed as S25 non-phosphorylated point mutant of FoxM1): effectively suppressed the motility of lung cancer cells | cancer metastasis to lung and tumorigenesis (tumorigenicity) (A549 cancer cells): more effective in reducing the metastasis and suppressing the tumorigenic potential | cancer metastasis to lung and tumorigenesis (tumorigenicity) (A549 cancer cells; listed as FoxM1 protein containing the non-phosphorylation point mutations): relatively low | cancer metastasis to lung and tumorigenesis (tumorigenicity) (A549 cancer cells; listed as non-phosphorylated point mutant of FoxM1): no tumors were formed | degree of cancer cell proliferation by H&E and Ki67 staining (A549 cancer cells): significantly low | viability of A549 cells co-cultured with Jurkat cells (in words) (A549 cells [3]; compared to WT or phosphorylation mutant, 48 h): significantly decreased | viability change of A549 cells co-cultured with THP-1 and Jurkat cells (A549 cells [4]): reduced | expression of CD25 and CD29 in Jurkat cells (in words) (Jurkat cells): significantly inhibiting effect | viability of A549 cells co-cultured with THP-1 cells (A549 cells [5]): not changed compared to the control group
